# Test results as given in publication PMC9635822.
# Assays:
# Test in all cases: optical tweezers, force between two trapped cells
# [1] = molecular target: AGA2-Im7 displayed on S. cerevisiae cells (ScΨ) (UniProt Q03708)
# [2] = molecular target: AGA2-CL7 displayed on S. cerevisiae cells (ScΦ) (UniProt Q47112)
# [3] = molecular target: AGA2-SpyCatcher displayed on S. cerevisiae cells (ScB)
# [4] = molecular target: AGA2-SpyTag displayed on S. cerevisiae cells (ScA)
# Sequence of UniProt Q03708 (Q03708 whole entry): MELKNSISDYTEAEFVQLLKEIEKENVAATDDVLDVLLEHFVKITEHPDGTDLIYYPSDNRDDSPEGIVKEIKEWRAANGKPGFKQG
substance,measurement,setting,value
AGA2-CL7 displayed on S. cerevisiae cells (ScΦ) (from UniProt Q47112 371-576) (domain or fragment),force needed to pull apart the new cells of the cluster,[1],< 351 pN
same,pulling force up to which the two cells remained attached,[1],335 pN
AGA2-SpyCatcher displayed on S. cerevisiae cells (ScB) (designed binder),interaction force between the two cells,[2],< 10 pN
AGA2-SpyTag displayed on S. cerevisiae cells (ScA) (peptide),force needed to pull apart the new cells of the cluster,[3],< 248 pN
same,pulling force up to which the two cells remained attached,[3],335 pN
same,interaction force between the two cells,[4],< 10 pN
